This passage reports protein stability index results from the supplement of paper PMC10567573.

The nature of the data set: protein stability index of a GFP-peptide fusion (GPS, HEK-293T) (PSI 1-6); higher = more stable.
The mark [1] stands for this setting: treatment: DMSO, c terminus: a fixed tail appended.
The mark [2] stands for this setting: treatment: MLN4924 1 uM, 8 h, c terminus: a fixed tail appended.

± gives the standard deviation.
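Further: 24-mer peptide tiles fused after GFP, lentivirally expressed, FACS-sorted into six equal bins by GFP/DsRed ratio, decoded by Illumina sequencing, PSI is the read-weighted mean bin number.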

For AVPHPPPSTPIKLEEGDGCAREYL [ADD1], the protein stability index by setting is: under setting [1], 4.16 ± 0.35; under setting [2], 4.42 ± 0.23.
As for MYPESTTGSPARLSLRQTGSPGMI [KCNAB2], the protein stability index is, setting by setting: under setting [1], 3.7 ± 0.51; under setting [2], 4.1 ± 0.4.
The like results for FPAYTQSTASTTSTTNSTAAKPAA [ZNF207] were, in that order, 4.68 ± 0.21 and 4.81 ± 0.25.
In the same order, the values of SQKVPLRRMCFVDPVRQCAECALV [ZFYVE21] are 2.21 ± 0.2 and 2.29 ± 0.23.
For the sequence RRQARREAEADKPRRLGRLKYQAP [NOP53], the protein stability index is 4.5 ± 0.35 under setting [1] and 4.6 ± 0.24 under setting [2].
For the sequence DLIKHQRIHTEEKPYKCQQCDKRF [ZNF75A], the protein stability index came to 2.99 ± 0.23 under setting [1] and 3.31 ± 0.16 under setting [2].
In the same order, the values of DGFFYFFHGTRQYKFDPKTKRILT [MMP1] are 2.14 ± 0.48 and 2.28 ± 0.23.
On to RDLIPPHVNFSHLTTKDYMEMYNV [SLC6A17], for which the protein stability index worked out at 3.04 ± 0.28 under setting [1] and 3.23 ± 0.17 under setting [2].
As for RLSVPRDSACDESSCIPKAFGNPK [IRX6], the protein stability index runs as follows: under setting [1], 4.84 ± 0.18; under setting [2], 4.89 ± 0.19.
PAATMAVELHYEEGSPRNLGTPTS [C2CD2L] registered a protein stability index under setting [1] of 4.4 ± 0.17 and a protein stability index under setting [2] of 4.52 ± 0.2.
The like results for KLREKERKKEAKRKISSLSFTLEE [FAM50A] were, in that order, 4.29 ± 0.3 and 4.53 ± 0.34.
Regarding GKIRRGAYALPAGLSAPARCLVRC [TRIB3], the protein stability index is, setting by setting: under setting [1], 2.47 ± 0.23; under setting [2], 2.7 ± 0.33.
The like results for GGRKGTAIELQGHNDRVQALSYAQ [WDFY2] were, in that order, 4.28 ± 0.21 and 4.38 ± 0.19.
The like results for ENRRKVLYQRAPRNIHRHVILSEI [TCF25] were, in that order, 2.62 ± 0.073 and 2.75 ± 0.31.
The like results for RQPPPPAPQHPQPGSQALPAPALA [FBXO28] were, in that order, 4.45 ± 0.23 and 4.74 ± 0.16.
On to AEEAEDHGRIPDPDDFVPPVPPPS [FAM189A2], for which the protein stability index amounted to 5.52 ± 0.24 under setting [1] and 5.51 ± 0.06 under setting [2].
With PKEPAPPNGSAAEPPTEAASREEN [PALM], the protein stability index under setting [1] came out at 5.57 ± 0.25 and the protein stability index under setting [2] is 5.37 ± 0.43.
The like results for SAERYNPRTNQWSPVVAMTSRRSG [KLHL20] were, in that order, 4.22 ± 0.061 and 4.43 ± 0.16.
The like results for KAYDHQTQELVAIKIIKNKKAFLN [DYRK1B] were, in that order, 2.37 ± 0.22 and 2.62 ± 0.25.
Take MSEMAELSELYEESSDLQMDVMPG [EID1]: the protein stability index was 5.43 ± 0.088 under setting [1] and 5.25 ± 0.32 under setting [2].
Take DENGRPYSPSQYALQYAGDGSVLL [NFE2L1]: the protein stability index was found to be 3.57 ± 0.39 under setting [1] and 3.6 ± 0.34 under setting [2].
With AGSCRLGSAGGLGSTLGGSSYSSC [KRT17], the protein stability index under setting [1] is 2.22 ± 0.3 and the protein stability index under setting [2] is 2.27 ± 0.31.
In the same order, the values of KCLQLLGNLGSLEKSVTKDAEGLA [INTS4] are 2.82 ± 0.46 and 3.08 ± 0.099.
Turning to HLGCMHYTVRAPVGVAGLISPWNL [ALDH8A1], the protein stability index under setting [1] amounted to 2.48 ± 0.97 and the protein stability index under setting [2] was found to be 2.31 ± 0.64.
Take TQHLPRECLPENLGGYVKIDLATW [PTPN9]: the protein stability index reads like this: under setting [1], 2.34 ± 0.4; under setting [2], 2.31 ± 0.41.
With ECVVAMHQAQLISKIPHILKEMYD [EIF5], the protein stability index was 2.78 ± 0.38 under setting [1] and 2.32 ± 0.5 under setting [2].
In the same order, the values of TCSNKKALLKFKPGAFIAGVPVQP [LPCAT4] are 2.85 ± 0.4 and 3.03 ± 0.19.
As to LTEHKRIHTGKKPHVCSLCGKAFY [ZNF649], the protein stability index came to 2.83 ± 0.38 under setting [1] and 3.32 ± 0.56 under setting [2].
The like results for LLYAQGLLAIQFLEFFYGIATATE [SLC19A2] were, in that order, 3.53 ± 0.64 and 3.2 ± 0.037.
For the sequence VWMDDFKSHVYMAWNIPMSNPGVD [GALNT9], the protein stability index worked out at 2.21 ± 0.3 under setting [1] and 2 ± 0.2 under setting [2].
In the same order, the values of AIGGTYLGPAFRGLKGRTLYPAVS [SPSB2] are 2.51 ± 0.16 and 2.69 ± 0.19.
In turn, NAILQLVKKYKSMKLEKEEFVTLK [ESRRG] had a protein stability index under setting [1] of 2.24 ± 0.37 and a protein stability index under setting [2] of 2.29 ± 0.12.
The like results for LEETEPPLEPEDALSDAEFEGEGD [P3H4] were, in that order, 5.49 ± 0.33 and 5.55 ± 0.17.
On to ILKIRHGWEDVTKINKTEICSQL [STEAP1], for which the protein stability index reads like this: (treatment: DMSO, c terminus: native) 2.42 ± 0.57; (treatment: MLN4924 1 uM, 8 h, c terminus: native) 2.2 ± 0.21.
In the case of YLAMLERFQDGDNILEKEVLPPIH [FEM1B], the protein stability index by setting is: under setting [1], 2.73 ± 0.19; under setting [2], 2.93 ± 0.24.
The like results for EGPDLVPAALGSLTTAQIARSVWR [HES6] were, in that order, 3.33 ± 0.39 and 3.59 ± 0.34.
In the same order, the values of SSVQKALFEEEDHVKKLQQKVATL [CCDC3] are 4.46 ± 0.33 and 4.49 ± 0.32.
In the same order, the values of KYDPTIEDSYRKQVEVDAQQCMLE [RAP1B] are 4.55 ± 0.12 and 4.66 ± 0.11.
In turn, QYPAGTQGEQLEVPERLLVVLDME [SPSB2] showed a protein stability index under setting [1] of 3.82 ± 0.45 and a protein stability index under setting [2] of 3.69 ± 0.19.
In the same order, the values of WHDTCFVCAICQINLEGKTFYSKK [PDLIM7] are 2.24 ± 0.29 and 2.21 ± 0.15.
As to ESVEQLESRIVEQENAIQTMELRN [SNX8], the protein stability index is, setting by setting: under setting [1], 5.41 ± 0.21; under setting [2], 5.51 ± 0.11.
In the case of QAWFGFAGTPGYLSPEVLRKEAYG [CAMK2B], the protein stability index under setting [1] is 2.55 ± 0.22 and the protein stability index under setting [2] came out at 2.76 ± 0.22.
The like results for LCEKAKEILTKESNVQEVRCPVTV [PPP2CA] were, in that order, 4.11 ± 0.32 and 4.44 ± 0.19.
EDSCAELGESKEHMESRMVTETEE [SDE2]: the protein stability index by setting is: under setting [1], 5.7 ± 0.18; under setting [2], 5.63 ± 0.3.
The like results for TEPDYKSKDWVFLNYTYKRFEGLT [STK38L] were, in that order, 1.92 ± 0.19 and 2.39 ± 0.59.
The like results for LWPFAWLQVAGLSEEQLQEPITGW [LPCAT4] were, in that order, 2.38 ± 0.18 and 2.5 ± 0.34.
On to GCNSVLIQFATPNDFCSFYNILKT [CARM1], for which the protein stability index is, setting by setting: under setting [1], 3.23 ± 0.62; under setting [2], 2.84 ± 0.61.
In the same order, the values of CDELELHQRFLREGRFWKSKNEDR [ZMYND11] are 4.29 ± 0.17 and 4.31 ± 0.36.
Consider RAYLFNSVVNVGCGPAEERVLLTG [YPEL3], for which the protein stability index by setting is: under setting [1], 2.72 ± 0.56; under setting [2], 2.87 ± 0.71.
In the same order, the values of VGSDEEDDSGKDKKKKTKKIKEKY [HSP90AB1] are 5.31 ± 0.47 and 5.32 ± 0.42.
The like results for KIQASGETPNSLNTTVIPNGSMAM [LYSMD4] were, in that order, 4.22 ± 0.097 and 4.09 ± 0.2.
FLPDLLIFQMVIICLMCVHSLERA [SMG5]: the protein stability index was found to be 3.28 ± 0.47 under setting [1] and 2.59 ± 0.5 under setting [2].
